In PMC8261802:

Columns and labels:
[1] = biological target: PEDV/S(1–1320) + CMP + Tags (porcine epidemic diarrhea virus (PEDV), strain 83P-5 | chicken); experiment: SEC; Superose 6 increase 10/300 GL in 1 x PBS; markers thyroglobulin 669 kDa, ferritin 440 kDa, aldolase 158 kDa
[2] = biological target: PEDV/S(1–1320) + CMP + Tags (porcine epidemic diarrhea virus (PEDV), strain 83P-5 | chicken); experiment: native gel or EMSA; Blue-native PAGE, 3 to 12% Bis-Tris NativePAGE gel, 115 min at 150 V, CBB stain; purified S protein

Substance: PEDV/S(1–1320) + CMP + Tags
- stoichiometry N [1]: 3
- stoichiometry N [2]: 3
